Residue numbers refer to the chain shown, from its start. Values belong to the binder of their own block, whether it stands above or below them.
How the values were obtained:
rVλ6Wil fibrils [1] = experiment: EuLISA on rVλ6Wil fibrils (FIG. 5A)
rVλ6Wil fibrils [2] = experiment: EuLISA on rVλ6Wil fibrils (FIG. 5B)

- EC50 (rVλ6Wil fibrils [1]): 17 nM
B1: VH10/VL4 (antibody, V domains shown)
VH: QVQLQESGPGLVKPSETLSLTCTVSGFSLSSYGVSWIRQPPGKGLEWLGVIWGDGSTNYHPNLMSRLSISKDTSKSQVLLKLSSVTAADTAVYYCVTLDYWGQGTSVTVSS
VL: DVVMTQSPLSLPVTLGQPASISCRSSQSLVHRNGNTYLHWFQQRPGQSPRLLIYKVSNRFSGVPDRFSGSGSGTDFTLKISRVEAEDVGVYFCFQTTYVPNTFGGGTKLEIK

- EC50 (rVλ6Wil fibrils [1]): 95 nM
- EC50 (rVλ6Wil fibrils [2]): 95 nM
B2: VH6/VL3 (antibody, V domains shown)
VH: B1 VH with I37V, S76N, V78F, L79S, V92T
VL: B1 VL with F41Y, Q42L, V90L

- EC50 (rVλ6Wil fibrils [1]): 16 nM
B3: VH8/VL4 (antibody, V domains shown)
VH: B1 VH with L48I, L67V, S68T, V78F, L79S
VL: B1 VL

- EC50 (rVλ6Wil fibrils [1]): 75 nM
B4: VH7/VL4 (antibody, V domains shown)
VH: B1 VH with L48I, L67V, S68T, S76N
VL: B1 VL
